{"source": "paper PMC9303359", "biological_target": "human Toll-like receptor 2 expressed on HEK-Blue hTLR2 cells (human) (UniProt O60603)", "sequence (O60603 21-784)": "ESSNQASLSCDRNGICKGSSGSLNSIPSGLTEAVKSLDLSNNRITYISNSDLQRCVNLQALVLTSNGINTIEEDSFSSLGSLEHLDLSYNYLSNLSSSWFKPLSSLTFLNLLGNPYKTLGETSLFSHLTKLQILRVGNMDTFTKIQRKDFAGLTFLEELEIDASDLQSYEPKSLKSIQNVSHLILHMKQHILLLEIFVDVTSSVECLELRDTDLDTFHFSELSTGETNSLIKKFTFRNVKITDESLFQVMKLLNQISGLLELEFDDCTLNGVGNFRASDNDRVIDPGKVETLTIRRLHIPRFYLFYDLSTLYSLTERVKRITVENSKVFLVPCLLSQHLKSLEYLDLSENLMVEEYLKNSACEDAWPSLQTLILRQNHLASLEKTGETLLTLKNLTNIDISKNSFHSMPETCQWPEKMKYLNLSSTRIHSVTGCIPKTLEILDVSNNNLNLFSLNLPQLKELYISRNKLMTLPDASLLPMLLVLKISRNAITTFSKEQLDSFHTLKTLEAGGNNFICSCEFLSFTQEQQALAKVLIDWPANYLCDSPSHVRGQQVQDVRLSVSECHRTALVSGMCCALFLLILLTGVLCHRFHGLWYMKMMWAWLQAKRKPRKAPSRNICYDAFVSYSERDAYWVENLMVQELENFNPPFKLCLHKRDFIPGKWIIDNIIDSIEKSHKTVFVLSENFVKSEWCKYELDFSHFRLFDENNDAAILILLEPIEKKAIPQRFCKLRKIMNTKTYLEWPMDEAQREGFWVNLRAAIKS", "experiment": "flow cytometry on cells"}
{"substance": "fluorescently labelled recombinant ancillary pilin 1 (rAP1 labelled with Red Mega 485) (natural protein)", "values": [{"measurement": "mean fluorescence intensity", "value": 1490}]}
